According to the nanobody polyreactivity screen of Harvey et al. (2022):

Test: yeast display, Sf9 membrane polyspecificity reagent, FACS + sequencing; frameworks hold sequencing errors
Method in brief: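 Sorting gates, low and high (top ~1%), were placed on anti-HA fluorescence to track expression and on streptavidin fluorescence to track reagent binding. A clone's polyreactivity label is taken from the gate it came out of. The reagent was 10% biotinylated, detergent-solubilized Sf9 membrane, applied for 1 hour at 4 °C to galactose-induced yeast display cells.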

QVQHVESGGGLVQAGGSLRLSCAASGSTFSYKVMGWYRQAPGKERELVAAISQSGGSTYYADSVKGRFTISRDNAKNTVYLHMNSLKPEDTAVYYCAAERRYYYGWGSFDYWGQGTQVTVSS
polyreactivity (PSR sort gate): low polyreactivity

QVQHVESGGGLVQAGGSLRLSCAASGSTIRYYTMGWYRQPPGKERELVAAITYSGGSTYYADSVKGRFTISRDNAKNTVYLQKNSLKPEDTAVYYCAKRWSQPKYDYWGQGTQVTVSS
polyreactivity (PSR sort gate): high polyreactivity

QVQHVESGGGLVQAGGSLRLSCAASGSTIYWYAMGWYRQAPGKERELVAAISLSGGSTYYADSVKGRFTISRDNAKNTVYLQMNSLKPEDTAVYYCAARTSYYVYRHPSGRYDYWGQGTQVSVSS
polyreactivity (PSR sort gate): low polyreactivity

QVQHVESGGGLVQAGGSLRLSCAASGSTSPGYAMGWSRQAPGKERELVAAITFRGTRTYYADSVKGRFTISRDNAKNTVYLQMNSQKPEDTAVYYCNVVGYGPNRGRVDYWGQGTQVTVSS
polyreactivity (PSR sort gate): high polyreactivity

QVQHVESGGGLVQAGGSLRLSCAASGYISVGYAMGWSRQAPGKERELVAAITESGGSTYYADSVKGRFTISRDNAKNTVYLQMNSLKPEDTAVYYCAADVIYEDRMDYWGQGTQVTVSS
polyreactivity (PSR sort gate): low polyreactivity

QVQHVESGGGLVQAGGSLRLSCAAYGFTFVRYAKGWYRQAPGKEREFVASISARGGNTFYADSVKGRFTISRDNAKNTVFLQMNSLKPEDTAVYYCAKRGPYGTGYGYWGQGTQVTVSS
polyreactivity (PSR sort gate): high polyreactivity

QVQHVESGGGLVQAGGSLRLSCAAYYAMGWYRQAPGKERELVAAISSTGRTNYADSVKGRFTISRDNAKNTVYLQMNSLKPEDTAVYYCNAGDPSGMDYWGQGTQVTVSS
polyreactivity (PSR sort gate): low polyreactivity

QVQHVESGGGLVQAGGSLRLSCASSGSTFWAYAMGWYRLAPGKERELVATITGSVGGTYYADSVKGRFTISRDNAKNTVYLQMNSLKPEDTAVYYCATDAYVKGVYEISEDRVDYWGQGTQVTVSS
polyreactivity (PSR sort gate): low polyreactivity

QVQHVESGGGLVQAGGSLRLSCDASGLTISWYAMGWYRQAPGKEREMVAAISKRGGSTYYADSVKGRFTISRDNAKNTVYLQMNSLKPEDTAVYYCNARSPYTGWTLDYWGQGTQVTVSS
polyreactivity (PSR sort gate): high polyreactivity

QVQHVESGGGLVQAGGSLRLSCDASGRIFAWYAMGWYRHAPGKERELVASISSGGRTNYADSVKGRFTISRDIAKNTVYLQMNSLKPVDTAVYYCNVAIVWPWYGRWFQEYDYWGQGTQVTVSS
polyreactivity (PSR sort gate): low polyreactivity

QVQHVESGGGLVQAGGSLRLSCPASGSIIYYNTMGWYRQAPGKERELVAGISWGGGRTYYADSVKGRFTISRDNAKNTVYLQMNSLKPEDTAVYYCNAVSKYDYGYWGQGTQVTVSS
polyreactivity (PSR sort gate): high polyreactivity

QVQHVESGGGLVQAGGSLRLSSAASGRIFSWNAMVWYRQAPGKERELVAAITNGGGTYYADSVKGRFTISRDNAKNTVYLQMNSLKPEDTAVYYCNAYRRKLWYPTGMYWGQGTQVTVSS
polyreactivity (PSR sort gate): high polyreactivity

QVQHVESGGGLVQAGGSLRLSSAASGSIFSYNAMGWYRQSPGKERELVAAIRASGGDTYYADSVKGRFTISRDNAKNTVYLQMNSLKPEDTAVYYCAARTYSHHYASHGYWGQGTQVTVSS
polyreactivity (PSR sort gate): low polyreactivity

QVQHVESGGGLVQAGGSLRLTCAATGSTFRDNAMRWYRQAPGKERELVAAIRIGGDGTYYADSVKGRFTISRDNAKNTVYLQMNSLKPEDTAVYYCAVDTEKGWRMYYWGQGTQVTVSS
polyreactivity (PSR sort gate): low polyreactivity

QVQHVESGGGLVQAGGSLRVSCAASGFIFSAYAMGRYRKATGKERELVAAISSGGSTYYADSVKGRFTISRDNAKNTVYLQMNSLKPEDTEVYYCAAVYTGRYRYDYWGQGTHVTVSS
polyreactivity (PSR sort gate): low polyreactivity

QVQHVESGGGLVQAGGSLSLRCAASGSTLPYYAMGGYRPAPGKEREFVAAISSSGGSTYYADSVKGRFTISRDNAKYTVYLQMNSLKPEDTAVYYCNAVLYARQRDRWARYDYWGQGTQVTVSS
polyreactivity (PSR sort gate): high polyreactivity

QVQHVESGGGLVQAGSLRLSCAASGSTFPYNAMGWYREAPGKERELVATISWSGGSTYYADSVKGRFTISRDNAKNTVYLQMNSLKPEDTAVYYCNATYGSSYDYWGQGTQVTVSS
polyreactivity (PSR sort gate): low polyreactivity

QVQHVESGGGLVQAVGSLRLSFAASGSIFRGYAMGGYRPAPGKERELVAAIRYSGARTYYADSVKGRFTISRDNAKNTVYLQMNSLKPEDTAVYYCNARSYSRTHYDYWGQGTQVTVSS
polyreactivity (PSR sort gate): high polyreactivity

QVQHVESGGGLVQEGGSLRLSCAASGITFGRNTMGWYRQAPGKERELVAAIDSGGNTYADSVKGRFTISRDNAKNTVYLQMNSLKPVDTAVYSCAVDGGEFSSYGYWGQGTQVTVSS
polyreactivity (PSR sort gate): low polyreactivity

QVQHVESGGGLVQPGGSLRLSCAASGYTFYANAMGWYRQAPGKEREFVASITWSGGSSYYADSVKGRFTISRDNAKNTVYLHLNSLKPEDTAVYYCAAESWFKYDYWGQGTQVTLSS
polyreactivity (PSR sort gate): low polyreactivity

QVQHVESGGGVVQAGRSLRLRCDASGFILWYYTMGWYRPAPGKERELVAAISRGGTTYYADSVKGRFTISRDNAKKSVYLQMTSLKPEDTAVYYCNAPDNTHGIVLYDYWGQGTQVTVSS
polyreactivity (PSR sort gate): low polyreactivity

QVQHVESGGRLVQAGGSLRLSCAASGRTFPQYAMGWYRQAPGKERELVAAITSGDSTNYSDSVKGRFTISRDNAKNTVYLQMNSLKPEDTAVYYCAAVYYYSKWYTPYEDVYWGQGTQVTVSS
polyreactivity (PSR sort gate): low polyreactivity

QVQHVESGRGLVQAGGILRLSCAASGRIFRMNAMGWYRQATGKERELDAAITWIGGRTYYADSVKGRFTISRDNAKNTVYLQMNSLKPEDTAVYYCAAAYPLDFWFGFEYDYWGQGTQGTVSS
polyreactivity (PSR sort gate): high polyreactivity

QVQHVESGRGLVQAGGSLRLICAASGRTFGRNAMGWYRQAPGQERELVAAITSGGSTSYADSVKGRFTISRDNAKNPVYLQMNSLKPEDTAVYYCRQFSVWGYDYWGQGTQLTVSS
polyreactivity (PSR sort gate): high polyreactivity

QVQHVESGRGLVQAGGSLRLSCAASGITFRYYAMGWYRQAPGKERELVAAISRGTSTKYADSVKGRFTISRDNAKNTVYLQMNSQKPEDTAVYYCAVYGYWSKSDYWGQGTQVTVSS
polyreactivity (PSR sort gate): low polyreactivity

QVQHVESGRGLVQAGGSLRLSCAASGSIFSSYARGWSREAPGKERELVAAISQSGGDTYYADSVKGRFTISRDNAKNTVYLQMKSLKPEDTAVYYCAASVWYYPMDYWGQGTQVTVSS
polyreactivity (PSR sort gate): low polyreactivity

QVQHVESGRGLVQAGGSLRLSCAGSGFIFYKYAMGWYRQAPGKERELVAAITRGGSTNYADSVKGRFTISRDTAKNTVFLQMNSLKPEDTAVYYCAAGNRYGVRQLYQIVTRYYWGQGTQVTVSS
polyreactivity (PSR sort gate): high polyreactivity

QVQHVESGVGLDQAGGSLRLSCAASGSIFYWNAMGWYRQAPGKEREFVATITITTSTNYADSVKGRFTISRDNAKNPVNLQMNSLKPEDTAVYYCNAGAPYRYLDEYNYWGQGTKVTVSS
polyreactivity (PSR sort gate): low polyreactivity

QVQHVESGVGLVQAGGSLRLSCAASGFIFTINAMGWYRQAPGKERELVAAISWSGGRTYYADSVKGRFTISRDNAKNTVYLQMNSLNPEDTAVYYCNAYPATQYDYESWGQGTQGTVSS
polyreactivity (PSR sort gate): high polyreactivity

QVQHVESGVGLVQAGGSLRLSCAASGRIFVFYTMGWYIQAPGKERELVARISSGGSKNYADSVKGRFTISRDNAKNTVYLQMNSLKPEDTAVYYCNAAYARGRAGYYYWGQGTQVTVSS
polyreactivity (PSR sort gate): high polyreactivity

QVQHVESRGGLVQAGGSLRLSCAASGSTFDGNAMGWYRQAPGTETELVAGISYRGGSTYYADSVKGRFTISRDYAKNSVYLQMNRLKPEDTAVYYCAADDYVYWLFDYWGQGTQVTVSS
polyreactivity (PSR sort gate): low polyreactivity

QVQHVESVGGLVQAGGSLRLSCAASVSTFYFYAMGWYRQAPGKERELVAVISSGGRTYYADSVKGRFTISRDKAKNTVYLQMNSLKPEDTAVYYCAASWPSSLTYYYWGQGTQVTVSS
polyreactivity (PSR sort gate): low polyreactivity

QVQHVESVGRLVQAGGSLRLSCAASGFTFKYYAMGWYRQAPGKERELVAVISSSGGSTYYADSVKGRFTISRDNAKNTVYLQMNSLKPEDTAVYYCAAELVYRYFVKDADDYWGQGTQVTVSS
polyreactivity (PSR sort gate): low polyreactivity

QVQHVETGGGLVQAGGSHRLSCAASGLIFDYNAMGWYTQAPRKERELDADISSGGSTYYADSVKGRFTISSDNGKNSVYLQMNSLKTEDTAVYYCATRRQAQYTRYYGSRQFYYWGQGTQVTVSS
polyreactivity (PSR sort gate): high polyreactivity

QVQHVETGGGLVQAGGSLRLSCAASGLAFAMGWYSQAPGTERELVASITGSGDSTYYADSVKGRFTISRDNAKNTVYLQMNSQKPEDTAVYYCGARTYYNYAPRYYYWGQGTQVTVSS
polyreactivity (PSR sort gate): low polyreactivity

QVQHVQSGGGLVQAGGSLRLSCAASGYIFWSYEIGGYRQAPGKERELDATITSGDSTYYADSVKGRFTISRDNAKNTVYLQMKSLKPEDTALDYCAACTYYRLTYWLREYDYSGQGTQVTVSS
polyreactivity (PSR sort gate): low polyreactivity

QVQIEESGGGLVQAGGSLRLSCAASGRTFNFYAMGWYRQATGKERELVAAISHGDSTYYADSVKGRFTISRDNAKNTVYLQMNSLKPEDTAVYYCAASQKYYLRKYEYWGQGTQVTVSS
polyreactivity (PSR sort gate): low polyreactivity

QVQIEESGGGLVQAGRSHRLSCAASGSTFGSYAMRWYRQAPGKERELVAAISASGGSTYYADSVKGRFTISRDNAKHTVYLQMNSLKPEDTAVFYCATVYYSARYNYWGQGTQVTVSS
polyreactivity (PSR sort gate): high polyreactivity

QVQIGESGGGLVQAGGSLRLSCAASGSTFWRYAMGWDRPATGKECELVASITGGGGSTYYADSVKGRFTISRDNAKNTVDLQMHRLKPEDNAVYSCNARRYYRVDSYDYWGQGTQVTVSS
polyreactivity (PSR sort gate): high polyreactivity

QVQILESGGGLVQAGGSLRLSCAASGFTFTGYALGWYSQAPGKERELVAAINARATSTYYADSVKGRFTISRDNAMNHVYLQIKSLIPEDTAVYFCAATFYRRYVDLGYWGQCTQVTVSS
polyreactivity (PSR sort gate): high polyreactivity

QVQIVDSGGGLVQAGGSLRLSCAASGSTFIPNDMGWYRQAPGKERELVAAITVSGDDTYYADSVKGRFTISRDNAKNTVYIQMNSLKPDDTAVYYCNVDDPFYSGVVVFDYWGQGTLVTVSS
polyreactivity (PSR sort gate): low polyreactivity

QVQIVESCGGLVQAGGSHRLSCAASGSTFVPNAMGWYRQAPGKEREFVAAISRIGGTYYADSVKGRFTISRDNEKNTVYLLMNCLKPEDNAVYYCAAEPSSVGYHVEYDYWGQGTQVTVSS
polyreactivity (PSR sort gate): low polyreactivity

QVQIVESGAGLVQAGRSLRLSCAASGIIFHRYAMGWYRQAPGKERELVAAITWSGDSTYYADSVKGRFTISRDNAKNTVYLQMNSLKPEDTAVYYFWEYDYWGQGTQVTVSS
polyreactivity (PSR sort gate): low polyreactivity
